Patent publication US20240350600A1

Target: cell-bound IgE on basophils of peanut-allergic subjects
Assay: cell-based or functional assay

percentage of activated basophils, one subject: 8%
Binder: NNFGKLFEVKPDKKNPQLQ [Ara h 1 combined epitope peptide (409-427)]
